Experimental data as given in patent US9518268B2, “Drought tolerant transgenic plants and method of making same” (PURDUE RESEARCH FOUNDATION, priority 2013, dated 2016).

B1: PYR1: Arabidopsis thaliana ABA receptor protein PYR1, AT4G17870 (protein, listed as Arabidopsis thaliana)
chain: MPSELTPEERSELKNSIAEFHTYQLDPGSCSSLHAQRIHAPPELVWSIVRRFDKPQTYKHFIKSCSVEQNFEMRVGCTRDVIVISGLPANTSTERLDILDDERRVTGFSIIGGEHRLTNYKSVTTVHRFEKENRIWTVVLESYVVDMPEGNSEDDTRMFADTVVKLNLQKLATVAEAMARNSGDGSGSQVT
B2: Q38K/F71L (protein)
chain: MESSKQKRCRSSVVETIEAPLPLVWSILRSFDKPQAYKRFVKSCTMRSGGGGGKGGEGKGSVRDVTLVSGLPADFSTERLEELDDESHVMVVSIIGGNHRLVNYKSKTKVVASPEDMAKKTVVVESYVVDVPEGTSEEDTIFFVDNIIRYNLTSLAKLTKKMMK
B3: Q38K/F71L/T135N (protein)
chain: MESSKQKRCRSSVVETIEAPLPLVWSILRSFDKPQAYKRFVKSCTMRSGGGGGKGGEGKGSVRDVTLVSGLPADFSTERLEELDDESHVMVVSIIGGNHRLVNYKSKTKVVASPEDMAKKTVVVESYVVDVPEGNSEEDTIFFVDNIIRYNLTSLAKLTKKMMK
B4: Q38K/F71L/N98D/T135N (protein)
chain: MESSKQKRCRSSVVETIEAPLPLVWSILRSFDKPQAYKRFVKSCTMRSGGGGGKGGEGKGSVRDVTLVSGLPADFSTERLEELDDESHVMVVSIIGGDHRLVNYKSKTKVVASPEDMAKKTVVVESYVVDVPEGNSEEDTIFFVDNIIRYNLTSLAKLTKKMMK
B5: Q38K/F71L/N98D (protein)
chain: MESSKQKRCRSSVVETIEAPLPLVWSILRSFDKPQAYKRFVKSCTMRSGGGGGKGGEGKGSVRDVTLVSGLPADFSTERLEELDDESHVMVVSIIGGDHRLVNYKSKTKVVASPEDMAKKTVVVESYVVDVPEGTSEEDTIFFVDNIIRYNLTSLAKLTKKMMK
B6: PYL9-K63Q/L89F (protein)
chain: MMDGVEGGTAMYGGLETVQYVRTHHQHLCRENQCTSALVKHIKAPLHLVWSLVRRFDQPQKYQPFVSRCTVIGDPEIGSLREVNVKSGFPATTSTERLELLDDEEHILGIKIIGGDHRLKNYSSILTVHPEIIEGRAGTMVIESFVVDVPQGNTKDETCYFVEALIRCNLKSLADVSERLASQDITQ
B7: PYL11-K39Q/L66F (protein)
chain: METSQKYHTCGSTLVQTIDAPLSLVWSILRRFDNPQAYQQFVKTCNLSSGDGGEGSVREVTVVSGFPAEFSRERLDELDDESHVMMISIIGGDHRLVNYRSKTMAFVAADTEEKTVVVESYVVDVPEGNSEEETTSFADTIVGFNLKSLAKLSERVAHLKL

Tests used:
RD29B-LUC expression [1] = experiment: Reconstituted ABA signaling pathway, transient expression in wild-type (Col-0) protoplasts; assay type: cell-based, Arabidopsis; settings: for ABA-dependent induction of RD29B-LUC expression: co-transfected with ABI1, SnRK2.6 and ABF2, without or with 5 μM ABA, 4.5 h
Protocol: To test whether PYL13 can act as an ABA receptor, the ABA signaling pathway in wild-type protoplasts was reconstituted. Turning now to FIG. 1, wild-type (Col-0) protoplasts were used in both panels A and B. After transfection, the protoplasts were incubated for 4.5 hours under light in the absence of ABA (open bars) or in the presence of 5 μM ABA (closed bars). Error bars indicate s.e.m. (n=3). […] ZmUBQ-GUS was used as the internal control. […] Instead, the ABA signaling pathway was reconstituted by co-expression of PYLs, ABI1, SnRK2.6, and ABF2. […] Therefore, the response of other members of the PYL family would not predict the response of PYL13 expression or over-expression in plants.
PYL13 interacts with all clade A PP2Cs tested but binds most strongly to PP2CA. To investigate whether PYL13 inhibits PP2Cs in planta, PYL13 was co-expressed with all clade A PP2Cs in wild-type protoplasts, as shown in FIG. 4. Transfections of all PP2Cs together with SnRK2.6 and ABF2 inhibited RD29B-LUC expression to different degrees, see FIG. 4A, and the degree of inhibition was correlated with the intensity of interaction between PP2Cs and SnRK2.6 (Fujii et al., 2009). […] The ABA signaling pathway was reconstituted by co-expression of PYLs, PP2Cs, SnRK2.6, and ABF2. RD29B-LUC was used as the ABA-responsive reporter. ZmUBQ-GUS was used as the internal control. After transfection, protoplasts were incubated for 4.5 h under light in the absence of ABA (open bars) or in the presence of 5 μM ABA (closed bars). Error bars indicate s.e.m. (n=9).
To investigate the physiological significance of the binding between PYL13 and PYLs in vivo, PYL13 was co-expressed with one of the other PYLs, ABI1, SnRK2.6, and ABF2 in wild-type protoplasts. When the transfected PYL13 plasmid was 2-fold of that of the other PYLs, co-transfections with PYL13 decreased the activity of the ABA-responsive PYLs (FIG. 5E). […] ZmUBQ-GUS was used as the internal control. After transfection, protoplasts were incubated for 4.5 h under light in the absence of ABA (open bars) or in the presence of 5 μM ABA (closed bars). Error bars indicate s.e.m. (n=3).
The ABA signaling pathway was reconstituted by co-expression of PYL13, PYLs, ABI1, SnRK2.6, and ABF2. […] Error bars indicate s.e.m. (n=3). […] Without wishing to be bound by theory, PYL13 inhibition of other PYLs might result from direct interactions between PYL13 and other PYLs or from competition for the binding sites on PP2Cs.
(§1) Assays for transient expression in protoplasts were performed as described (Fujii et al., 2009). Leaf strips (0.5 mm) were cut from the middle part of second leaves using a razor blade (VWR SCIENTIFIC) and submerged in 15 mL of enzyme solution containing 20 mM MES, pH 5.7, 1.5% (w/v) cellulase R10 (YAKULT PHARMACEUTICAL INDUSTRY), 0.4% (w/v) macerozyme R10 (YAKULT PHARMACEUTICAL INDUSTRY), 0.4 M mannitol, 20 mM KCl, 10 mM CaCl2, 1 mM 2-mercaptoethanol, and 0.1% BSA. The leaves were vacuum infiltrated for 30 min and then incubated without shaking for 3 h in the dark at room temperature. The enzyme/protoplast solution was diluted with 15 mL of W5 solution (2 mM MES, pH 5.7, 154 mM NaCl, 125 mM CaCl2, and 5 mM KCl) and filtered with a 75-μm nylon mesh. Protoplasts were centrifuged at 100 g for 2 min in a 30-mL round-bottomed tube (SARSTEDT), resuspended in W5 solution, and rested for 30 min at room temperature.
Before transfection, protoplasts were changed into MMg solution (4 mM MES, pH 5.7, 0.4 M mannitol, and 15 mM MgCl2) to a final concentration of 2×10^5 cells per microliter. Protoplasts (100 μl) were gently and thoroughly mixed with the plasmid DNA mixture (less than 10 μl) and 110 μl of PEG solution (40% w/v PEG-4000, 0.2 M mannitol, and 100 mM CaCl2), incubated for 5 min, washed with 440 μl of W5 solution, and resuspended in 50 μl of WI solution (4 mM MES, pH 5.7, 0.5 M mannitol, and 20 mM KCl). After transfection, protoplasts were incubated in WI solution without ABA or with 5 μM ABA under light. […]

RD29B-LUC expression [2] = experiment: ABA-independent induction of RD29B-LUC in triple mutant protoplasts; assay type: cell-based, Arabidopsis; settings: for ABA-independent RD29B-LUC expression, as share of that in the presence of 5 μM ABA: abi1/hab1/abi2 and abi1hab1pp2ca triple mutant protoplasts, with SnRK2.6 and ABF2
Text: The basal RD29B-LUC expression level was elevated in protoplasts co-transfected with PP2CA-PYL13, HAI2-PYL13, or HAI3-PYL13, which is consistent with PYL13 inhibition of these PP2Cs in an ABA-independent manner in vivo (FIG. 4A). To exclude interference by endogenous PP2Cs in wild type protoplasts and to assess the ABA-independent selective inhibition of PP2Cs by PYL13, PYL13 was co-expressed with PP2CA, HAI1, HAI2, and HAI3 in abi1/hab1/abi2 triple mutant protoplasts, as shown in FIG. 4C. After transfection, protoplasts were incubated for 4.5 h under light in the absence of ABA. Error bars indicate s.e.m. (n=3).
Expression of RD29B-LUC in the absence of ABA was increased in the transfections of PYL9-K63Q/L89F or PYL11-K39Q/L66F together with SnRK2.6 and ABF2 to a considerable level. The ABA-independent RD29B-LUC expression is about 70% of that in the presence of 5 μM ABA in the transfection of PYL11-K39Q/L66F, while about 30˜60% in the transfection of PYL9-K63Q/L89F (FIG. 4). […] RD29B-LUC was used as the ABA-responsive reporter. ZmUBQ-GUS was used as the internal control. After transfection, protoplasts were incubated for 4.5 h under light in the absence of ABA (open bars) or in the presence of 5 μM ABA (closed bars). Error bars indicate s.e.m. (n=4).
as §1
Before transfection, protoplasts were changed into MMg solution (4 mM MES, pH 5.7, 0.4 M mannitol, and 15 mM MgCl2) to a final concentration of 2×10^5 cells per microliter. Protoplasts (100 μl) were gently and thoroughly mixed with the plasmid DNA mixture (less than 10 μl) and 110 μl of PEG solution (40% w/v PEG-4000, 0.2 M mannitol, and 100 mM CaCl2), incubated for 5 min, washed with 440 μl of W5 solution, and resuspended in 50 μl of WI solution (4 mM MES, pH 5.7, 0.5 M mannitol, and 20 mM KCl). After transfection, protoplasts were incubated in WI solution without ABA or with 5 μM ABA under light. The protoplasts were harvested after 4.5 h, frozen in liquid N2, and stored at −80° C.
The frozen protoplasts were resuspended in 50 μl of protoplast lysis buffer containing 2.5 mM Tris-phosphate, pH 7.8, 1 mM DTT, 2 mM DACTAA, 10% (v/v) glycerol, and 1% (v/v) Triton X-100. Protoplast lysates (20 μl) were mixed with 100 μl of LUC mix (PROMEGA), and LUC luminescence was measured with a plate reader (Wallac VICTOR2 plate reader).
Protoplast lysates (2 μl) were mixed with 10 μl of 4-methylumbelliferyl β-D-glucuronide (MUG) substrate mix (10 mM Tris-HCl, pH 8, 1 mM MUG [GOLD BIOTECHNOLOGY], and 2 mM MgCl2). After the mixture was kept for 30 min at 37° C., 100 μl of 0.2 M Na2CO3 was added, and GUS activity was measured using the plate reader with the excitation filter at 355 nm and the emission filter at 460 nm.
All the plasmids used in this assay were purified with the QIAGEN Plasmid Maxi Kit or the QIAGEN Plasmid Midi Kit. The quality of plasmid DNA is important for high transfection efficiency. RD29B::LUC (7 μg of plasmid per transfection) was used as the ABA-responsive reporter. ZmUBQ::GUS (2 μg of plasmid per transfection) was used as the internal control. […]

Row | Molecule | ABA-dependent induction of RD29B-LUC expression (RD29B-LUC expression [1]) | RD29B-LUC expression (RD29B-LUC expression [1]; with ABI1, HAB1, HAB2, HAI1, and AHG1, SnRK2.6 and ABF2) | expression of RD29B-LUC in the absence of ABA (RD29B-LUC expression [2]; abi1/hab1/abi2 protoplasts, with PP2CA, HAI2, or HAI3, SnRK2.6 and ABF2) | ABA-independent RD29B-LUC expression, as share of that in the presence of 5 μM ABA (RD29B-LUC expression [2])
1 | B1 | restored RD29B-LUC expression |  |  | 
2 | B2 | could partially confer | conferred an ABA-dependent induction |  | 
3 | B3 | could partially confer |  |  | 
4 | B4 | could partially confer |  | abolished | 
5 | B5 | could partially confer |  |  | 
6 | B6 | cannot antagonize |  |  | 30˜60%
7 | B7 | cannot antagonize |  |  | about 70%
